“And” between values parts separate entries of the source, which are not always exact repeats. Equal entries are not always repeated.
B1: 66E8 Fab (Fab, V domains shown)
VH: EVQLQQSGPELVKPGASVKISCKASGYSFTGYFMNWVKQSHGKSLEWIGRINPYNGDTFYKQRFKGKATLTVDKSSSTVHMDLLSLTSEDSAVYYCGRGNYYFDYWGQGTTLTVSS
VL: DVQITQSPSYLAASPGETITINCRTSKNISKYLAWYQEKPGKTNKLLIYSGYTLQSGIPSRFSGSGSGTDFTLTISSLEPEDFAMYYCQQHNEYPYTFGGGTKLEIK
notes: heavy chain of the 66E8 Fab in PDB 6VEL; light chain of the 66E8 Fab in PDB 6VEL; Fab as used in BLI and analytical SEC; source: ExpiCHO, transfected, purified
B2: 66E8 Fab (activating antibody to human E-cadherin) (Fab, V domains shown)
VH: B1 VH
VL: B1 VL
notes: source: ExpiCHO, transfected, purified (CaptureSelect LC-kappa (mur) and Ni-NTA, or StrepTactin XT); kifunensine and Endo Hf for crystallography
B3: 19A11 Fab (activating antibody to human E-cadherin) (Fab, V domains shown)
VH: QVQLKESGPGLVAPSQSLSITCTVSGFSLSRYGVHWVRQPPGKGLEWLGMMWGGGNTDYNSALKSRLSISKDNSKSQVFLKMNSLQTDDTAMYYCASSNYVLGYAMDYWGQGTSVTVSS
VL: DIVMTQSPSSLAMSVGQKVTMNCKSSQSLLNSSNQKNYLAWYQQKPGQSPKLLIYFTSTRGSGVPDRFIGSGSGTDFTLTISSVEAEDLADYFCQQHYRTPHTFGGGTKVEIK
notes: The 6His form was used for the crystal complex; Purified on a murine kappa light chain resin; also called 19A11-6His Fab; source: ExpiCHO, transfected, purified (CaptureSelect LC-kappa (mur) and Ni-NTA, or StrepTactin XT); ConA-cleared for crystallography

Key:
[1] = molecular target: T1, human E-cadherin EC1-5-TwinStrep-8His (Homo sapiens, UniProt P12830); test: BLI; E-cadherin EC1-5-TwinStrep-8His loaded on Ni-NTA sensors; Fabs in a 1:3 dilution series; Octet Red96, 23°C, 1000 rpm; 50 mM Tris pH 8.0, 150 mM NaCl, 3 mM CaCl2, 0.25 mg/mL BSA, 0.005% Tween-20; 1:1 binding global fit; conditions: both partners purified
T1 construct: human E-cadherin extracellular domains EC1-5, residues 155 to 698; also called hEC1-5-TS-8His; hE-EC15-TS-8H; source: Expi293, transfected, purified from supernatant (StrepTactin XT); not shown: Twin-Strep, C-terminal, kept; 8His, C-terminal, kept

[2] = molecular target: T2, human E-cadherin ectodomain EC1–5 with Twin-Strep and 8His tags (used for BLI) (Homo sapiens); test: BLI; method taken from the construct description (E-cadherin used for BLI had an additional 8His tag); format and conditions not shown; conditions: both partners purified
T2 construct: the range counts on the precursor; also called E-cadherin used for BLI; source: Expi293, transfected, purified from culture supernatant (StrepTactin XT)
T2 chain: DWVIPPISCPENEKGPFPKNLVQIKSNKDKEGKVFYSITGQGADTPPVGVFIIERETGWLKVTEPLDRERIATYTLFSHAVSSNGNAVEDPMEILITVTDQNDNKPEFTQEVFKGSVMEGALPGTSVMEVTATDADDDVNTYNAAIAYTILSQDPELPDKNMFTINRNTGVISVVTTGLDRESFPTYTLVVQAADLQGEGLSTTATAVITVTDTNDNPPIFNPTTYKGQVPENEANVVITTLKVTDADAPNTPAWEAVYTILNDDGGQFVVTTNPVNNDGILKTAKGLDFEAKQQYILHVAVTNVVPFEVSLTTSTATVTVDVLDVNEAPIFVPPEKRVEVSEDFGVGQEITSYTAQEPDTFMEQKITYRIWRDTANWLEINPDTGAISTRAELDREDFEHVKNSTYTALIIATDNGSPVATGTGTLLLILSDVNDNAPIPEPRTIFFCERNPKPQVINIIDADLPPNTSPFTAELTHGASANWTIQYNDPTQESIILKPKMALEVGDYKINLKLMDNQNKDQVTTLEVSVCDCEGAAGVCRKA

| Binder | Kd [1] | Kd [2] |
| --- | --- | --- |
| B1 | 90.1 nM and 96.5 nM and 91.8 nM and 92.8 nM | – |
| B2 | – | ~100 nM |
| B3 | – | ~6.5 nM |

Source: paper PMC9491697 (PNAS Nexus, 2022)
